# Source: US20030157685
# B1: Mxi2 as a hemaglutinin epitope-tagged fusion (Mxi2-HA), expressed in 293 cells (protein)
# chain: MSQERPTFYRQELNKTIWEVPERYQNLSPVGSGAYGSVCAAFDTKTGLRVAVKKLSRPFQSIIHAKRTYRELRLLKHMKHENVIGLLDVFTPARSLEEFNDVYLVTHLMGADLNNIVKCQKLTDDHVQFLIYQILRGLKYIHSADIIHRDLKPSNLAVNEDCELKILDFGLARHTDDEMTGYVATRWYRAPEIMLNWMHYNQTVDIWSVGCIMAELLTGRTLFPGTDHIDQLKLILRLVGTPGAELLKKISSESARNYIQSLTQMPKMNFANVFIGANPLGKLTIYPHLMDIELVMI
# Key:
# [1] = biological target: T1, endogenous Omi protein precipitated from 293 cells with the anti-Omi polyclonal antibody
# T1 chain: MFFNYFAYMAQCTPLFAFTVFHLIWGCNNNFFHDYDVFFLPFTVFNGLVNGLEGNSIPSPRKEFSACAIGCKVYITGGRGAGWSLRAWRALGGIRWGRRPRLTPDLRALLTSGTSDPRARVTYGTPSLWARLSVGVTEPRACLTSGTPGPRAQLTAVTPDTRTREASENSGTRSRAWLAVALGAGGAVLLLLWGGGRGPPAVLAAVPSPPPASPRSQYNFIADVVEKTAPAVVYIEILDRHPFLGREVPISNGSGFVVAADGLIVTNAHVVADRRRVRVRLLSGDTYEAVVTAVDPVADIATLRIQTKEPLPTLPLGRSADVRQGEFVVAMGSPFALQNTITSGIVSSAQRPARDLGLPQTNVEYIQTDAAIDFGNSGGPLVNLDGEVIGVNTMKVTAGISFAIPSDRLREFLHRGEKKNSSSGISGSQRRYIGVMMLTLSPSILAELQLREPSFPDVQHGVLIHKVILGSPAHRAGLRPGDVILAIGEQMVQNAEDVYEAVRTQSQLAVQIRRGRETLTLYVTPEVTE
# [2] = biological target: His-Max made in bacteria, P61244
# Chain of His-Max made in bacteria, P61244 (P61244 whole entry): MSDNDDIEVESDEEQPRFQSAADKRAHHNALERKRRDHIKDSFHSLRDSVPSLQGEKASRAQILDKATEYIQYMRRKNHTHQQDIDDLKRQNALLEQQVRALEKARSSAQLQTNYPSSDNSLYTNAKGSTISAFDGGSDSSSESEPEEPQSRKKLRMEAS
protein,measurement,setting,value
B1,phosphorylation of Omi by isolated HA-Mxi2 (autoradiograph),[1],The autoradiograph shows Omi as well as Max protein was phosphorylated
same,"phosphorylation of Omi in a kinase reaction on the immunoprecipitated Omi/Mxi2 complex ([gamma-32P]ATP, autoradiography)",[1],Phosphorylated Omi is shown as a doublet of phosphorylated polypeptides with a molecular weight of 57-59 kD
same,"proteolytic activity of Omi (colorimetric assay, absorbance at 450 nm)",[1],the proteolytic activity of Omi increases dramatically when phosphorylated by Mxi2
same,phosphorylation of Max by isolated HA-Mxi2 (autoradiograph),[2],The autoradiograph shows Omi as well as Max protein was phosphorylated
same,phosphorylation of Max in the same kinase reaction,[2],Max was also phopshorylated very efficiently
